Test results published in patent publication US20230407373A1 (priority 2020, published 2023).
Where two headings read alike, the source gives them in different places.

B1: SRSF10 (protein, UniProt O75494 1-262, looked up)
Serine/arginine-rich splicing …: MSRYLRPPNTSLFVRNVADDTRSEDLRREFGRYGPIVDVYVPLDFYTRRPRGFAYVQFEDVRDAEDALHNLDRKWICGRQIEIQFAQGDRKTPNQMKAKEGRNVYSSSRYDDYDRYRRSRSRSYERRRSRSRSFDYNYRRSYSPRNSRPTGRPRRSRSHSDNDRFKHRNRSFSRSKSNSRSRSKSQPKKEMKAKSRSRSASHTKTRGTSKTDSKTHYKSGSRYEKESRKKEPPRSKSQSRSQSRSRSKSRSRSWTSPKSSGH
B2: DDX1: host protein, UniProt Q92499 (protein, UniProt Q92499 1-740, looked up)
ATP-dependent RNA helicase …: MAAFSEMGVMPEIAQAVEEMDWLLPTDIQAESIPLILGGGDVLMAAETGSGKTGAFSIPVIQIVYETLKDQQEGKKGKTTIKTGASVLNKWQMNPYDRGSAFAIGSDGLCCQSREVKEWHGCRATKGLMKGKHYYEVSCHDQGLCRVGWSTMQASLDLGTDKFGFGFGGTGKKSHNKQFDNYGEEFTMHDTIGCYLDIDKGHVKFSKNGKDLGLAFEIPPHMKNQALFPACVLKNAELKFNFGEEEFKFPPKDGFVALSKAPDGYIVKSQHSGNAQVTQTKFLPNAPKALIVEPSRELAEQTLNNIKQFKKYIDNPKLRELLIIGGVAARDQLSVLENGVDIVVGTPGRLDDLVSTGKLNLSQVRFLVLDEADGLLSQGYSDFINRMHNQIPQVTSDGKRLQVIVCSATLHSFDVKKLSEKIMHFPTWVDLKGEDSVPDTVHHVVVPVNPKTDRLWERLGKSHIRTDDVHAKDNTRPGANSPEMWSEAIKILKGEYAVRAIKEHKMDQAIIFCRTKIDCDNLEQYFIQQGGGPDKKGHQFSCVCLHGDRKPHERKQNLERFKKGDVRFLICTDVAARGIDIHGVPYVINVTLPDEKQNYVHRIGRVGRAERMGLAISLVATEKEKVWYHVCSSRGKGCYNTRLKEDGGCTIWYNEMQLLSEIEEHLNCTISQVEPDIKVPVDEFDGKVTYGQKRAAGGGSYKGHVDILAPTVQELAALEKEAQTSFLHLGYLPNQLFRTF
B3: UPF1: host protein, UniProt Q92900 (protein, UniProt Q92900 1-1129, looked up)
Regulator of nonsense …: MSVEAYGPSSQTLTFLDTEEAELLGADTQGSEFEFTDFTLPSQTQTPPGGPGGPGGGGAGGPGGAGAGAAAGQLDAQVGPEGILQNGAVDDSVAKTSQLLAELNFEEDEEDTYYTKDLPIHACSYCGIHDPACVVYCNTSKKWFCNGRGNTSGSHIVNHLVRAKCKEVTLHKDGPLGETVLECYNCGCRNVFLLGFIPAKADSVVVLLCRQPCASQSSLKDINWDSSQWQPLIQDRCFLSWLVKIPSEQEQLRARQITAQQINKLEELWKENPSATLEDLEKPGVDEEPQHVLLRYEDAYQYQNIFGPLVKLEADYDKKLKESQTQDNITVRWDLGLNKKRIAYFTLPKTDSGNEDLVIIWLRDMRLMQGDEICLRYKGDLAPLWKGIGHVIKVPDNYGDEIAIELRSSVGAPVEVTHNFQVDFVWKSTSFDRMQSALKTFAVDETSVSGYIYHKLLGHEVEDVIIKCQLPKRFTAQGLPDLNHSQVYAVKTVLQRPLSLIQGPPGTGKTVTSATIVYHLARQGNGPVLVCAPSNIAVDQLTEKIHQTGLKVVRLCAKSREAIDSPVSFLALHNQIRNMDSMPELQKLQQLKDETGELSSADEKRYRALKRTAERELLMNADVICCTCVGAGDPRLAKMQFRSILIDESTQATEPECMVPVVLGAKQLILVGDHCQLGPVVMCKKAAKAGLSQSLFERLVVLGIRPIRLQVQYRMHPALSAFPSNIFYEGSLQNGVTAADRVKKGFDFQWPQPDKPMFFYVTQGQEEIASSGTSYLNRTEAANVEKITTKLLKAGAKPDQIGIITPYEGQRSYLVQYMQFSGSLHTKLYQEVEIASVDAFQGREKDFIILSCVRANEHQGIGFLNDPRRLNVALTRARYGVIIVGNPKALSKQPLWNHLLNYYKEQKVLVEGPLNNLRESLMQFSKPRKLVNTINPGARFMTTAMYDAREAIIPGSVYDRSSQGRPSSMYFQTHDQIGMISAGPSHVAAMNIPIPFNLVMPPMPPPGYFGQANGPAAGRGTPKGKTGRGGRQKNRFGLPGPSQTNLPNSQASQDVASQPFSQGALTQGYISMSQPSQMSQPGLSQPELSQDSYLGDEFKSQIDVALSQDSTYQGERAYQHGGVTGLSQY
B4: HNRNPH2: host protein, UniProt P55795 (protein, UniProt P55795 1-449, looked up)
Heterogeneous nuclear …: MMLSTEGREGFVVKVRGLPWSCSADEVMRFFSDCKIQNGTSGIRFIYTREGRPSGEAFVELESEEEVKLALKKDRETMGHRYVEVFKSNSVEMDWVLKHTGPNSPDTANDGFVRLRGLPFGCSKEEIVQFFSGLEIVPNGMTLPVDFQGRSTGEAFVQFASQEIAEKALKKHKERIGHRYIEIFKSSRAEVRTHYDPPRKLMAMQRPGPYDRPGAGRGYNSIGRGAGFERMRRGAYGGGYGGYDDYGGYNDGYGFGSDRFGRDLNYCFSGMSDHRYGDGGSSFQSTTGHCVHMRGLPYRATENDIYNFFSPLNPMRVHIEIGPDGRVTGEADVEFATHEDAVAAMAKDKANMQHRYVELFLNSTAGTSGGAYDHSYVELFLNSTAGASGGAYGSQMMGGMGLSNQSSYGGPASQQLSGGYGGGYGGQSSMSGYDQVLQENSSDYQSNLA
B5: XRN2: host protein, UniProt Q9H0D6 (protein, UniProt Q9H0D6 1-950, looked up)
5'-3' exoribonuclease 2: MGVPAFFRWLSRKYPSIIVNCVEEKPKECNGVKIPVDASKPNPNDVEFDNLYLDMNGIIHPCTHPEDKPAPKNEDEMMVAIFEYIDRLFSIVRPRRLLYMAIDGVAPRAKMNQQRSRRFRASKEGMEAAVEKQRVREEILAKGGFLPPEEIKERFDSNCITPGTEFMDNLAKCLRYYIADRLNNDPGWKNLTVILSDASAPGEGEHKIMDYIRRQRAQPNHDPNTHHCLCGADADLIMLGLATHEPNFTIIREEFKPNKPKPCGLCNQFGHEVKDCEGLPREKKGKHDELADSLPCAEGEFIFLRLNVLREYLERELTMASLPFTFDVERSIDDWVFMCFFVGNDFLPHLPSLEIRENAIDRLVNIYKNVVHKTGGYLTESGYVNLQRVQMIMLAVGEVEDSIFKKRKDDEDSFRRRQKEKRKRMKRDQPAFTPSGILTPHALGSRNSPGSQVASNPRQAAYEMRMQNNSSPSISPNTSFTSDGSPSPLGGIKRKAEDSDSEPEPEDNVRLWEAGWKQRYYKNKFDVDAADEKFRRKVVQSYVEGLCWVLRYYYQGCASWKWYYPFHYAPFASDFEGIADMPSDFEKGTKPFKPLEQLMGVFPAASGNFLPPSWRKLMSDPDSSIIDFYPEDFAIDLNGKKYAWQGVALLPFVDERRLRAALEEVYPDLTPEETRRNSLGGDVLFVGKHHPLHDFILELYQTGSTEPVEVPPELCHGIQGKFSLDEEAILPDQIVCSPVPMLRDLTQNTVVSINFKDPQFAEDYIFKAVMLPGARKPAAVLKPSDWEKSSNGRQWKPQLGFNRDRRPVHLDQAAFRTLGHVMPRGSGTGIYSNAAPPPVTYQGNLYRPLLRGQAQIPKLMSNMRPQDSWRGPPPLFQQQRFDRGVGAEPLLPWNRMLQTQNAAFQPNQYQMLAGPGGYPPRRDDRGGRQGYPREGRKYPLPPPSGRYNWN
B6: LRRC59 (protein, UniProt Q96AG4 1-307, looked up)
Leucine-rich …: MTKAGSKGGNLRDKLDGNELDLSLSDLNEVPVKELAALPKATILDLSCNKLTTLPSDFCGLTHLVKLDLSKNKLQQLPADFGRLVNLQHLDLLNNKLVTLPVSFAQLKNLKWLDLKDNPLDPVLAKVAGDCLDEKQCKQCANKVLQHMKAVQADQERERQRRLEVEREAEKKREAKQRAKEAQERELRKREKAEEKERRRKEYDALKAAKREQEKKPKKEANQAPKSKSGSRPRKPPPRKHTRSWAVLKLLLLLLLFGVAGGLVACRVTELQQQPLCTSVNTIYDNAVQGLRRHEILQWVLQTDSQQ
B7: TXN (protein, UniProt P10599 2-105, looked up)
Thioredoxin: VKQIESKTAFQEALDAAGDKLVVVDFSATWCGPCKMIKPFFHSLSEKYSNVIFLEVDVDDCQDVASECEVKCMPTFQFFKKGQKVGEFSGANKEKLEATINELV

Assays:
gRNA of HCoV-OC43 = assay type: binding; conditions: for target (spectral count, OC43 Probe I RNP capture) / background (spectral count, no-probe control): type n_48_v: 48 hours post-infection; for target (spectral count, OC43 Probe I RNP capture): infected cells, unweighted spectral count; for background (spectral count, no-probe control): no-probe control on infected cells; for target (spectral count) / background (spectral count): type g_36_m, 36 hpi, Probe I; for target (spectral count): HCoV-OC43-infected HCT-8 cells; for background (spectral count): uninfected-probe control
HCoV-OC43 gRNA and sgRNA = assay type: binding; conditions: for target (unweighted spectral count, OC43 Probe II capture) / target (unweighted spectral count): tested against no-probe control; for target (unweighted spectral count, OC43 Probe II capture): FDR<10%; for target (unweighted spectral count): OC43 Probe II, 24 hpi (type n_24_v), infected cells; for target (unweighted spectral count, OC43 Probe II) / background (unweighted spectral count, no-probe control): type n_48_v, 48 hpi; for target (unweighted spectral count, OC43 Probe II): OC43 Probe II capture on infected cells; for background (unweighted spectral count, no-probe control): no-probe control on infected cells; for target (spectral count) / background (spectral count): type s_36_m, Probe II; for target (spectral count): HCoV-OC43-infected HCT-8 cells; for background (spectral count): uninfected-probe control

Molecule | target (spectral count, OC43 Probe I RNP capture) (gRNA of HCoV-OC43) | background (spectral count, no-probe control) (gRNA of HCoV-OC43) | target (unweighted spectral count, OC43 Probe II capture) (HCoV-OC43 gRNA and sgRNA; 36 hpi, type n_36_v) | target (unweighted spectral count) (HCoV-OC43 gRNA and sgRNA) | target (unweighted spectral count, OC43 Probe II) (HCoV-OC43 gRNA and sgRNA) | background (unweighted spectral count, no-probe control) (HCoV-OC43 gRNA and sgRNA) | target (spectral count) (gRNA of HCoV-OC43) | background (spectral count) (gRNA of HCoV-OC43) | target (spectral count) (HCoV-OC43 gRNA and sgRNA; 36 hpi) | background (spectral count) (HCoV-OC43 gRNA and sgRNA; 36 hpi) | target (unweighted spectral count, OC43 Probe II capture) (HCoV-OC43 gRNA and sgRNA; 24 hpi, type n_24_v)
B1 | 9 | 1 | 6 | 6 | 9 | 1 |  |  |  |  | 
B2 | 12 | 1 | 9 | 7 | 11 | 1 | 12 | 1 | 9 | 1 | 
B3 | 13 | 1 | 16 | 8 | 16 | 1 |  |  | 16 | 1 | 
B4 | 10 | 1 | 8 |  | 10 | 1 | 12 | 1 | 8 | 1 | 4
B5 | 9 | 1 |  |  | 10 | 1 | 8 | 1 |  |  | 
B6 | 9 | 1 | 6 |  | 5 | 1 |  |  |  |  | 
B7 | 8 | 1 | 6 |  |  |  |  |  |  |  | 
